Measured values from patent US20120192297A1 (TOKYO INSTITUTE OF TECHNOLOGY, published 2012).

Biological target: Cullin 4A (Cul4A), endogenous in 293T cells (human, UniProt Q13619 1-759, limits assumed)
Experiment: anti-FLAG immunoprecipitation from 293T cells, western blotting for DDB1 and Cul4A

Chain of Cullin 4A (Cul4A), endogenous in 293T cells (Q13619 whole entry): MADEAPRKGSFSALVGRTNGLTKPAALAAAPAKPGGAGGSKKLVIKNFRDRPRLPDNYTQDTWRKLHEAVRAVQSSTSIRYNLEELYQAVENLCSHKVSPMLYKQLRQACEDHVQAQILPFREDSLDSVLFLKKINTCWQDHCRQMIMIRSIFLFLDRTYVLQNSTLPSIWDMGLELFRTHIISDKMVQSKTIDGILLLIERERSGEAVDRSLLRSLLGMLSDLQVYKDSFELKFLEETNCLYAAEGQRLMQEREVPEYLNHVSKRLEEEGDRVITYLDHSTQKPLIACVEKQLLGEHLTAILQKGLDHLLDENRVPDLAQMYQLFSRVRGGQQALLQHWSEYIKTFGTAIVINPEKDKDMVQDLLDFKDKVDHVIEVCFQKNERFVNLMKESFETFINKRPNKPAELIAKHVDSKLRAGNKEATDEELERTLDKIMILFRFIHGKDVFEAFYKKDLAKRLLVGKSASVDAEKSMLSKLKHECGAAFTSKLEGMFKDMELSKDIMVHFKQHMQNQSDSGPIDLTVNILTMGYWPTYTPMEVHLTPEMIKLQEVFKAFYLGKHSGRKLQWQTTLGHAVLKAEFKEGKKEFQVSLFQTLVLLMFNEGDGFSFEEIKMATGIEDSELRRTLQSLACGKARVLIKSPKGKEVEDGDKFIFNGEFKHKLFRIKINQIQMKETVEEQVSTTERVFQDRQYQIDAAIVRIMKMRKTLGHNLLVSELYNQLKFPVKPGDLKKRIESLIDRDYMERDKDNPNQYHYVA

binding result: no binding
B1: FH-CRBN ΔMid (deletion of amino acids 187 to 260) (other, not shown: small tags and cut ends)
chain: MAGEGDQQDAAHNMGNHLPLLPAESEEEDEMEVEDQDSKEAKKPNIINFDTSLPTSHTYLGADMEEFHGRTLHDDDSCQVIPVLPQVMMILIPGQTLPLQLFHPQEVSMVRNLIQKDRTFAVLAYSNVQEREAQFGTTAEIYAYREEQDFGIEIVKVKAIGRQRFKVLELRTQSDGIQQAKVQILPLREWDENLKDDSLPSNPIDFSYRVAACLPIDDVLRIQLLKIGSAIQRLRCELDIMNKCTSLCCKQCQETEITTKNEIFSLSLCGPMAAYVNPHGYVHETLTVYKACNLNLIGRPSTEHSWFPGYAWTVAQCKICASHIGWKFTATKKDMSPQKFWGLTRSALLPTIPDTEDEISPDKVILCL
